Experiments:
[1] = molecular target: T1, Recombinant human PD-1 (Sino Biological Inc., Catalog Number 10377-H08H) (human, UniProt Q15116 25-167); assay: ELISA, human PD-1 coated
T1 construct: Bought protein; also called antigen PD-1
Method: (§1) Recombinant human PD-1 (purchased from Sino Biological Inc.) was coated on a 96-well high-absorbing ELISA plate with a carbonate buffer solution with pH 9.6, the coating concentration was 1 μg/mL, the coating amount was 100 μL per well, and the coating was carried out at 4° C. overnight. The plate was washed five times with PBST and blocked with 300 μL/well of PBST containing 1% BSA, and then incubated at 25° C. for 1 hour. The plate was washed five times with PBST. […] The plate was washed five times with PBST. Then, horseradish peroxidase-labeled anti-human IgG antibody (Chemicon, Catalog Number AP309P) 1:2000 diluted in PBST containing 1% BSA was added, 100 μL per well, incubated at 25° C. for 1 hour. The plate was washed five times with PBST. 100 μL/well of colorimetric substrate TMB was added and incubated at room temperature for 10 minutes. Color development was terminated by adding 100 μL/well of 1 M H₂SO₄. The absorbance at 450 nm was read on a microplate reader.

[2] = molecular target: T1, Recombinant human PD-1 (Sino Biological …); assay: SPR (Biacore X100), antibody captured on anti-human IgG CM5 chip, PD-1 as analyte
Method: The instrument utilizes an optical surface plasmon resonance technique to detect association and dissociation between a molecule coupled on a sensor chip and an analyte. CM5 chips (GE Healthcare, BR-1000-12) were used. […] In the association phase, the antigen PD-1 was diluted to multiple concentrations with a running buffer, and injected at a rate of 30 μL/min for 180 seconds. In the dissociation phase, the duration of the dissociation was 1200 seconds. Glycine solution (GE Healthcare, BR-1003-54) was used to regenerate for 30 seconds at a speed of 10 μL/min. […] Association rate constant and dissociation rate constant were analyzed and calculated by Biacore X100 evaluation software.

[3] = molecular target: T2, Recombinant mouse PD-1 (Sino Biological Inc.) (mouse, UniProt Q02242 25-167); assay: species specificity ELISA, coated recombinant mouse PD-1, anti-human IgG-HRP
T2 sequence (looked up): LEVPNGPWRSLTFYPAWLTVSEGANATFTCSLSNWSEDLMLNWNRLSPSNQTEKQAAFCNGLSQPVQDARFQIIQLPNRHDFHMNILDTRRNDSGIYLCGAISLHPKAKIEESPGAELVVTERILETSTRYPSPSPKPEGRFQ
Method: (§2) Recombinant human PD-1, monkey PD-1, rat PD-1 and mouse PD-1 (all purchased from Sino Biological Inc.), were coated on a 96-well high-absorbing ELISA plate with a carbonate buffer solution with pH 9.6, the coating concentration was 1 μg/mL, the coating amount was 100 μL per well, and the coating was carried out at 4° C. overnight. The plate was washed five times with PBST and blocked with 300 μL/well of PBST containing 1% BSA, and then incubated at 25° C. for 1 hour. The plate was washed five times with PBST. […] The plate was washed five times with PBST. Then, horseradish peroxidase-labeled anti-human IgG antibody (Chemicon, Catalog Number AP309P) 1:2000 diluted in PBST containing 1% BSA was added, 100 μL per well, incubated at 25° C. for 1 hour. The plate was washed five times with PBST. 100 μL/well of colorimetric substrate TMB was added and incubated at room temperature for 10 minutes. Color development was terminated by adding 100 μL/well of 1 M H₂SO₄: The absorbance at 450 nm was read on a microplate reader.

[4] = molecular target: T3, Recombinant human BTLA (Sino Biological Inc.) (human, UniProt Q7Z6A9 31-157, limits assumed); assay: binding specificity ELISA, coated recombinant human BTLA, anti-human IgG-HRP
T3 sequence (looked up): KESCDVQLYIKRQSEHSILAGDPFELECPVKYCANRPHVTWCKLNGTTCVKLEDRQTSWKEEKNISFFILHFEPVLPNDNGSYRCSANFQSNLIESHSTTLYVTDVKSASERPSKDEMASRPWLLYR
Method: as §1, with “The” for “Recombinant human PD-1 (purchased from Sino Biological Inc.) was coated on a 96-well high-absorbing ELISA plate with a carbonate buffer solution with pH 9.6, the coating concentration was 1 μg/mL, the coating amount was 100 μL per well, and the coating was carried out at 4° C. overnight. The”, “1% BSA” for “1% BSA,”, “and” for “and then”, “μL was added to each” for “μL per”

[5] = molecular target: Recombinant human PD-L1 (Sino Biological Inc.) (human, UniProt Q9NZQ7 19-239); assay: binding specificity ELISA, coated recombinant human PD-L1, anti-human IgG-HRP
Method: as §1, with “The” for “Recombinant human PD-1 (purchased from Sino Biological Inc.) was coated on a 96-well high-absorbing ELISA plate with a carbonate buffer solution with pH 9.6, the coating concentration was 1 μg/mL, the coating amount was 100 μL per well, and the coating was carried out at 4° C. overnight. The”, “1% BSA” for “1% BSA,”, “and” for “and then”, “μL was added to each” for “μL per”

[6] = molecular target: T1, Recombinant human PD-1 (Sino Biological …); assay: ELISA, coated recombinant human PD-1 (1 ug/mL), detection with anti-human IgG-HRP, OD450nm
Method: as §1

[7] = molecular target: T1, Recombinant human PD-1 (Sino Biological …); assay: species specificity ELISA, coated recombinant human PD-1 (1 ug/mL), anti-human IgG-HRP, OD450nm
Method: as §2

[8] = molecular target: Recombinant monkey PD-1 (Sino Biological Inc.) (monkey); assay: species specificity ELISA, coated recombinant monkey PD-1 (1 ug/mL), anti-human IgG-HRP, OD450nm
Method: as §2

T1 sequence (Q15116 25-167 limits assumed): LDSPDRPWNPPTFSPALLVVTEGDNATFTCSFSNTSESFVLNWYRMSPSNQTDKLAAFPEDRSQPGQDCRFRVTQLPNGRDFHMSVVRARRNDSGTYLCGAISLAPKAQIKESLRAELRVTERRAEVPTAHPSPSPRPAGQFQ
Recombinant human PD-L1 (Sino Biological Inc.), sequence (Q9NZQ7 19-239 limits assumed): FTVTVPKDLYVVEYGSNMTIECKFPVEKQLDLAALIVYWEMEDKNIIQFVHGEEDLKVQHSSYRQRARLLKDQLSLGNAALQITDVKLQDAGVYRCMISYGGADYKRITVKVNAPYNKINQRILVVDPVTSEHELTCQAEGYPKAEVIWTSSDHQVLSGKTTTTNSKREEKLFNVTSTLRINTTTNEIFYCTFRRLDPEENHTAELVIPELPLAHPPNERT

EC50 [1]: 0.031 nM
Kd [2]: 1.37 nM
koff [2]: 0.000295 s⁻¹
kon [2]: 215000 M⁻¹ s⁻¹
binding result [3]: no binding (tested: about 20 nM)
binding result [4]: no binding
binding result [5]: no binding
EC50 [6]: 0.092 nM
EC50 [7]: 0.092 nM
EC50 [8]: 0.1 nM
B1: anti-human PD-1 chimeric monoclonal antibody (antibody, human IgG4 S228P, kappa, V domains shown)
VH: EVQLQESGGGLVKPGGSLKLSCAASGFTFSSYGMSWVRQTPEKRLEWVASISGGGRYTYYPDSMKGRFTISRDNAKNNLHLQMSSLRSEDTALYYCVYEYFYTMDYWGQGTSVTVSS
VL: DIVLTQSPATLSVTPGDSVSLSCRANQSISNNLHWYQQRSHESPRLLIRFASQSISGIPSRFSGSGSGTDFTLSINSVETEDFGMYFCQQSDNWPLTFGAGTKLEIKR
notes: expressed in 293F cells; also called Anti-human PD-1 Chimeric Antibody; chimeric anti-human PD-1 monoclonal antibody
